Here are results for 167 variants from the RNAGym collection of RNA variant scans (doi:10.7554/elife.80360).

The chains are these.
B1: CPEB3 Ribozyme (parent)
chain: GGGGGCCACAGCAGAAGCGUUCACGUCGCGGCCCCUGUCAGAUUCUGGUGAAUCUGCGAAUUCUGCUGU

This series covers variants of B1. As to the kind of experiment: self-cleavage, relative activity (ratio to wild type); higher = more cleavage; co-transcriptional.
Turning to U38C U69A, the self-cleavage amounted to 0.988. In the case of U38C U69C, the self-cleavage stood at 1.06. The value for C39A G56U was 0.984. With C39A G56C, the self-cleavage stood at 0.904. The value for C39A G56A was 0.898.

In the case of U38C U46A, the self-cleavage came out at 0.943. The value for U38C U46C was 0.966; that for C39U G41U was 0.337. Then C39U G41A, with 0.475. Then C39G C63U, with 0.934; and C39G C63A, with 0.494; and C39G G41C, with 0.351.

For the variant C39G G41U, the self-cleavage turned out to be 0.436.

Turning to A40C C57A, the self-cleavage is 0.2. As for A40C C57G, the self-cleavage turned out to be 0.316. Then C39A C63U, with 0.776. For the variant C39A C63A, the self-cleavage is 0.465. Regarding C39A C63G, the self-cleavage was 0.407. The value for A40C G68A was 0.882; that for C39A G50A was 0.912; that for C39A G50C was 0.602. As for C39A G50U, the self-cleavage amounted to 0.847. The value for A40C U69C was 0.965; that for A40C U69A was 0.865. With A40C G47U, the self-cleavage was 0.905. On to A40C G47A, for which the self-cleavage came out at 0.791. Consider C39A C54A, for which the self-cleavage turned out to be 0.583. The value for C39A C54G was 0.427; that for C39A C54U was 0.765. Then C39A U44A, with 0.638; and C39A U44G, with 0.562. Then C39A U44C, with 0.432; and C39G U69C, with 1.05; and C39A C57U, with 0.346. C39A C57G: the self-cleavage worked out at 0.327. Regarding C39A G48A, the self-cleavage turned out to be 0.968.

C39G G50C: the self-cleavage was determined as 0.771. Then A40C C63U, with 0.388; and A40C C63G, with 0.315.

With C39G U61A, the self-cleavage was found to be 0.703. As to C39G U61G, the self-cleavage was 0.597. The value for C39A A52C was 0.67. As to C39A A52U, the self-cleavage was 0.673. As for C39A A52G, the self-cleavage amounted to 0.833.

With A40C A60U, the self-cleavage came out at 0.217. The value for U38G G48C was 0.236. The value for U38G G48U was 0.266; that for A40G A51C was 0.927. Then A40G A51U, with 0.891; and U38C U64G, with 0.785; and U38C U64C, with 0.662. Take U38G A52C: the self-cleavage was found to be 0.275. Turning to U38G A52G, the self-cleavage came to 0.327. The value for C39U C45U was 0.862. The value for U38G A42U was 0.178; that for U38G A42G was 0.189. The value for U38G A42C was 0.264; that for C39G C66G was 0.566; that for C39G C66U was 0.961. As for A40C U49G, the self-cleavage stood at 0.658. Then A40C U49C, with 0.584; and A40C U49A, with 0.679. For A40C G65A, the self-cleavage came out at 0.387.

In the case of A40C G65C, the self-cleavage came to 0.332. Then U38G G50U, with 0.271. Regarding A40C G58U, the self-cleavage amounted to 0.727. Regarding A40C G58C, the self-cleavage was determined as 0.776. Then U38G C57A, with 0.161.

As for U38G C57U, the self-cleavage was 0.282. The value for C39A U64C was 0.544; that for C39G U49A was 0.923; that for C39G U49C was 0.875.

For the variant U38G U55G, the self-cleavage came to 0.283. With U38G U55C, the self-cleavage came to 0.172.

In the case of U38G U55A, the self-cleavage turned out to be 0.196.

As to C39A U67A, the self-cleavage was 0.846. Take C39A U67G: the self-cleavage turned out to be 0.932. The value for C39A U67C was 0.918. On to A40C U55A, for which the self-cleavage came to 0.697. A40C U55C: the self-cleavage is 0.515.

C39U G50U: the self-cleavage turned out to be 0.895. In the case of C39U G50C, the self-cleavage is 0.744. The value for C39U A60G was 0.667; that for C39U A60U was 0.266; that for C39U A60C was 0.341. The value for C39A C45A was 0.64; that for C39A C45U was 0.708; that for C39A U69G was 0.964. U38G G65A: the self-cleavage was found to be 0.257. U38G G65U: the self-cleavage is 0.28. The value for C39A A59C was 0.386; that for A40G A42U was 0.763. On to A40G A42G, for which the self-cleavage is 0.822. Turning to A40C U67A, the self-cleavage is 0.518. Then A40C U67G, with 0.744; and U38G U69A, with 0.352. Regarding U38G U69G, the self-cleavage amounted to 0.42. Turning to U38G U69C, the self-cleavage was found to be 0.412. The value for U38G A60G was 0.249; that for U38G A60U was 0.331. The value for U38G U46C was 0.294; that for U38G U46A was 0.233; that for C39G G47A was 0.996.

In the case of C39G G47C, the self-cleavage was 0.986. The value for C39G G47U was 0.989; that for C39U U67G was 0.923.

Regarding C39U U67A, the self-cleavage worked out at 0.902. Then C39U U67C, with 0.882. The value for U38G G41C was 0.226; that for U38C U55C was 0.556. The value for U38C U55A was 0.733.

Turning to U38C U61C, the self-cleavage is 0.57. Then C39A A60G, with 0.606. Regarding C39A A60U, the self-cleavage was 0.24.

With C39A A60C, the self-cleavage was determined as 0.286.

As to C39A U43A, the self-cleavage was 0.386. With C39A U43C, the self-cleavage was found to be 0.517. As for A40C U46G, the self-cleavage was found to be 0.802. The value for A40C U46C was 0.273; that for A40C U46A was 0.866; that for C39U G48U was 0.941.

With C39U G48A, the self-cleavage worked out at 0.998.

For U38G C54A, the self-cleavage stood at 0.304.

With C39U U69C, the self-cleavage came out at 1.04. As to C39A U62A, the self-cleavage is 0.549. Then C39A U46G, with 0.957. On to C39A U46C, for which the self-cleavage worked out at 0.808. Then C39G U62G, with 0.592; and C39G U62A, with 0.788. The value for C39G U62C was 0.658.

For C39G A52C, the self-cleavage came out at 0.89. The value for C39G A52U was 0.858; that for C39G A52G was 0.917; that for C39U G68U was 0.95.

Consider C39U G68C, for which the self-cleavage was found to be 0.97. Take A40C U53A: the self-cleavage amounted to 0.311. For the variant A40C U53C, the self-cleavage is 0.219. Turning to A40C U53G, the self-cleavage was 0.15. Then C39U U62G, with 0.622; and C39U U62C, with 0.514; and C39U U62A, with 0.702. Then C39G A60C, with 0.265; and C39G A60U, with 0.354.

For C39G A60G, the self-cleavage is 0.794. For the variant A40C C54U, the self-cleavage amounted to 0.523. Then A40C C54A, with 0.244. On to U38C U62C, for which the self-cleavage stood at 0.633. Consider U38C U62G, for which the self-cleavage came to 0.717.

Turning to C39A G41U, the self-cleavage was determined as 0.277. Then C39G A51C, with 0.718; and C39G A51U, with 0.853. The value for C39G A51G was 0.924; that for C39U A40G was 0.813.

For the variant C39U A40C, the self-cleavage came out at 0.756.

C39G U55A: the self-cleavage turned out to be 0.866. Then U38C U43A, with 0.8; and U38C U43C, with 0.858. Then U38G C66A, with 0.285; and U38G C66U, with 0.194; and U38G C66G, with 0.229. Take A40C A59G: the self-cleavage was 0.515. As for A40C A59C, the self-cleavage is 0.346. In the case of A40G A60C, the self-cleavage came to 0.329. Take A40G A60U: the self-cleavage turned out to be 0.486.

A40G A60G: the self-cleavage was 0.859. As to C39U G65A, the self-cleavage is 0.56. The value for C39U G65U was 0.498.
